From US20140105914A1 (ANTITOPE, published 2014)
Numbering of substitutions follows the chain as printed. Blank lines part the entries; values can stand above or below the binder they belong to.

Columns and labels:
[1] = biological target: T1, Recombinant CTLA4-fusion protein comprising the extracellular domain of human CTLA4 fused to the human IgG1 … (human, UniProt P16410 36-161); assay: ELISA on coated CTLA4-Fc
T1 construct: extracellular domain; Bought reagent; Coated on ELISA plates at 0.5 ug/ml; also called CTLA4-Fc; CTLA4-Ig; not shown: human IgG1 constant domain (Fc); a Factor Xa site lies between CTLA4 and Fc, since the fusion was cle
T1 sequence (looked up): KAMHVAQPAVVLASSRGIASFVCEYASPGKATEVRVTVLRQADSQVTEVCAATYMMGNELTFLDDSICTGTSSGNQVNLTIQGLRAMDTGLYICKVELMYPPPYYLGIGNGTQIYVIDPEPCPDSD

[2] = biological target: T2, human CTLA4 expressed on the surface of T-cells (human, UniProt P16410 36-223); assay: flow cytometry on stimulated human CD4+ T cells, antibody at 5 ug/ml
T2 construct: whole, on cells; For flow cytometry the cells were fixed and treated with saponin; Also used as the target in the PBMC functional assays; also called CTLA4 expressed on T cells
T2 sequence (looked up): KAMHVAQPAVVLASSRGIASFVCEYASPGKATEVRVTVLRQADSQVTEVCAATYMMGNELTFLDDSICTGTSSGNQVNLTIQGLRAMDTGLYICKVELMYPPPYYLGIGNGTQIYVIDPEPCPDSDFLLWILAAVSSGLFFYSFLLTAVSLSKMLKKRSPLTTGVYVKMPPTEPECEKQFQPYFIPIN
Experimental: In order to determine whether the lead monoclonal antibodies bound to CTLA4 expressed on the surface of T-cells, a flow cytometric analysis was performed. Human peripheral T cells were isolated from human PBMC (peripheral blood mononuclear cells) and stimulated to enhance expression of CTLA4. CD4+ cells were purified from PBMC using a CD4⁺ T Cell Isolation Kit (Miltenyi Biotec, Bisley, UK), plated out in a 24 well plate (1×10⁶ cells/well) in AIM-V Medium (Invitrogen, Paisley, UK) and incubated at 37° C. overnight. Cells were stimulated with lonomycin (1 μg/ml) and PMA (phorbol 12-myristate 13-acetate) (50 ng/ml) and incubated 4 h at 37° C. Cells were washed once in AIM-V medium, fixed in PBS containing 2% formaldehyde for 15 min, and resuspended in FACS buffer (D-PBS containing 1% BSA, 0.05% sodium azide and 0.1% Saponin) at 2×10⁶ cells/ml and incubated 30 min at 4° C.
2×10⁵ cells were stained using either a 1 in 10 dilution of anti-CTLA4-PE conjugated antibody (BNI3) (Abcam, Cambridge, UK) as a positive control or with 5 μg/ml of individual anti-CTLA4 monoclonal antibodies together with a 1 in 50 dilution of anti-mouse IgG-PE conjugated antibody (Sigma). Mouse IgG (Sigma) was also included as separate controls for the different murine isotypes present within the lead monoclonal antibodies. […] Instrument settings were determined by analysis of relevant isotype control antibodies. […]

[3] = biological target: T1, Recombinant CTLA4-fusion protein …; assay: CTLA4 binding ELISA on coated CTLA4-Fc
[4] = biological target: T2, human CTLA4 expressed on the surface of …; assay: flow cytometry on CTLA4 expressed on T cells
[5] = biological target: T2, human CTLA4 expressed on the surface of …; assay: cell-based or functional assay

B4: chimeric 3B10 human IgG1 antibody (antibody, V domains shown)
VH: EVQLQQFGAELVKPGASVKMSCKASGYTFTDYNMDWVRQSHGKSLEWIGNINPNSESTSYNQKFKGKATLTVDKSSSTAYMELRSLTSDDTAVYYCTRDGNRYDAWFAYWGQGTLVTVSS
VL: QIVLTQSPAIMSASPGEKVTMTCSASSSVTYMHWFQQKPGTSPKLWIYSTSILASGVPARFSGSGSGTSYSLTISRMEAEDAATYYCQQRTSYPLTFGTGTKLELK
modifications: Biotinylated when used as the labelled competitor in Example 6.
notes: Gamma 4 versions were also cloned; also called 3B10 chimeric antibody; parental 3B10 chimeric antibody
binding result [3]: binds
binding result [4]: binds

B5: lead humanised variant VH5/VK4 anti-CTLA4 antibody (antibody, V domains shown)
VH: QVQLVQSGAELKKPGASVKVSCKASGYTFTSYWINWIRQAPGQGLEWIGRIAPGSGTTYYNEVFKGRVTITVDKSTSTAYMELSSLRSEDTAVYFCARGDYGSYWGQGTLVTVSS
VL: EIVLTQSPATLSLSPGERATLSCSASSSISYMHWFQQRPGQSPRRWIYDTSKLASGVPARFSGSGSGTDYTLTISSLEPEDFATYYCHQRTSYPLTFGQGTKLEIKR
IFN-gamma secretion in human mixed lymphocyte reaction (T cell activation), antibody at 150 ug/ml, compared to MDX010 [5]: 2 fold

Results, then the binder that gave them:

binding result [1]: binds
binding result [2]: binds
B1: murine monoclonal antibody 8H5 (subclone 8H5-1B1) (antibody, V domains shown)
VH: QVQLQQSGDDLVKPGASVKLSCKASGYTFTSYWINWIKQRPGQGLEWIGRIAPGSGTTYYNEVFKGKATLTVDKYSSTAYIQLSSLSSEDSAVYFCARGDYGSYWGQGTLVTVSS
VL: B4 VL with V29I, T30S, L45R, S49D, I52K, S75N, R76S, Q88H, T99A
notes: Mouse hybridoma antibody with a kappa light chain; also called 8H5-1A1

binding result [1]: binds
binding result [2]: binds
B2: murine monoclonal antibody 3B10 (subclone 3B10-4F7) (antibody, V domains shown)
VH: B4 VH
VL: B4 VL
notes: Mouse hybridoma antibody with a kappa light chain; also called 3B10-6E3

binding result [3]: binds
binding result [4]: binds
B3: chimeric 8H5 human IgG1 antibody (antibody, V domains shown)
VH: B1 VH
VL: B4 VL with V29I, T30S, L45R, S49D, I52K, S75N, R76S, Q88H, T99A
modifications: Biotinylated when used as the labelled competitor in Example 6.
notes: Gamma 4 versions were also cloned; also called 8H5 chimeric antibody; h8H5 parent IgG1
